Entries after “also recorded” stand apart in the source; their conditions may differ.
Tests used:
human OPN protein = biological target: T1, human OPN protein (Homo sapiens, UniProt P10451); test: Western blot of 1A12 against human OPN protein; assay type: binding
T1 construct: made in house; host or cells: Pichia (yeast), culture supernatant
Method: 100 ug human OPN and an equal volume of Freund's adjuvant were emulsified, and injected intraperitoneally into BALB/C mice. Boost was given every two weeks at the same dose. […] The mouse spleen lymphocytes were fused with NS-1 cells using the classic PEG method. 96-well plate coated with 10 μg/ml human OPN was used for repeated screening by ELISA method to obtain hybridoma cell line 1A12 which was capable of stably expressing anti-human OPN antibody. The strain of 1A12 was amplified, and administrated to BALB/C mice in 5×10^6 cells/mouse (i.p.). The ascites was collected from the 10th day after the injection. The anti-human OPN monoclonal antibody was purified by affinity chromatography using protein A column.

HUVECs = test: Formation of capillary-like structure in HUVECs on matrigel; assay type: cell-based, human
Method: HUVECs were cultured in the M200 medium containing LCGS to 80% confluence. The matrigel stored at −20° C. was took out the day before experiment and naturally thawed at 4° C. for 3 to 12 hours. To each well of a 96-welt plate was added […] using a pre-cooled pipet with carefully removing the bubbles, wherein the whole procedure was carried on ice. The loaded plate was incubated at 37° C. for 1 hour to gel the matrigel. To each well, 100 μl HUVECs (2×10^4/well) was gently added onto the surface of matrigel. To the treatment groups were further added the anti-hOPN antibodies 1A12, c1A12 and h1A12. The plate was incubated at 37° C. for […], and the formation of the capillary-like structure was observed 6 hours after.

[1] = test system: chicken embryo chorioallantoic membrane (CAM); test: Chicken embryo chorioallantoic membrane (CAM) angiogenesis assay; assay type: in vivo; settings: human OPN 250 ng + antibody 1 μg; P<0.01
Method: The Leghorn chicken embryos were purchased from the farm with a fertilization rate of >90%. The 8-day old chicken embryos were selected. After sterilization, a small hole was drilled in the center of the top air chamber of the embryo with a lancet, the surrounding shell with the inner membrane was removed with caution to create an opening of 1 cm×1 cm. Then the following analytes/gelatin sponge were added to the CAM surface: i) PBS; ii) HOPN; iii) human OPN (250 ng); iv) human OPN (250 ng)+the irrelevant antibody as control (1 μg); v) human OPN (250 ng)+the murine anti-OPN antibody 1A12 (1 μg); vi) human OPN (250 ng)+the murine-human chimeric anti-OPN antibody c1A12 (1 μg); vii) human OPN (250 ng)+the humanized anti-OPN antibody h1A1.2 (1 μg).
The analytes/gelatin sponge were added to the CAM surface, which was far away from the already-formed dense vascular network. […] The number of vessels within an area edging 2 mm from the edges of the carrier slide was counted under a dissecting microscope to study the angiogenesis using the “vascular index” (Ribatti, D., B. Nico, A. Vacca et al., The gelatin sponge-chorioallantoic membrane assay. Nat Protoc, 2006, 1 (1): 85-91). The number of vessel was counted at the same magnification under the dissecting microscope. The result in each sample group was expressed as “mean±standard deviation (x±S)”. […]

rabbit cornea = test: OPN-induced rabbit corneal neovascularization; assay type: in vivo; settings: pellet with 200 ng hOPN and 1 μg antibody
Method: The Hydron powder was dissolved in anhydrous ethanol under sterile condition to the final concentration of 12% (w/v), and dissolved with agitation under 37° C. to formulate the 12% Hydron cast solution, which was then stored at room temperature. A quota of sucralfate powder formulated in sterile Milli Q water under sterile conditions as a suspension with the final concentration of 100 μg/μl, which was stored at 4° C., and vortexed to homogeneous intermediately before use. Sustained-release pellets were prepared to each containing 200 ng hOPN and 50 μg sucralfate and, for the antibody groups, 1 μg anti-OPN antibodies, and for the control, the irrelevant antibody. The 12% Flydron east solution and the hOPN-sucralfate-PBS blend were mixed as the ratio of 1:1 (volume ratio), vortexed for 1 min. Then 5 μl mixed Hydron-sucralfate-hOPN solution was added onto a sterilized Parafilm surface, dried for about 30 min on a super-clean bench for a complete polymerization. The polymers were then shaped into uniform circular granules with a 2 mm diameter using an eye tweezers. The granules were stored at −20′C. Animals were grouped in the same way as in Experiment II-3, each group consisting of four eyes.
The rabbit was anesthetized at ear edge vein with 3% sodium pentobarbital (1 ml/kg body weight) and on both corneal surfaces with 1% tetracaine. The thickness of the cornea was measured using an ultrasonic cornea thickness gauge. A 3 mm half-depth incision was made at the center of the cornea using an ophthalmic knife, and an undermining tunnel toward the 12 o'clock or 3 o'clock position on the corneoscleral margin was made using a 2 mm-wide scleral tunnel knife, whereby the tunnel lied within the corneal layer with the top of the tunnel about 1 mm distant from the limbus corneae. The Hydron/sucralfate sustained-release pellet was implanted into the top of tunnel using micro-tweezers. The cuts were treated with chlortetracycline eye ointment after the surgery. From Day 1 after the surgery, the double-blinded observer observed the rabbit conical neovascularization under the slit-lamp each day, until the Day 10, The length (VL) and the vascular clock angle (CN, 30°=1CN) of the longest vessel were measured, and the area of neovascularization was calculated according to the following formula:
Area (mm^2)=0.2×π×VL (mm)×CN (mm)

MDA-MB-435s cells = test: Microvessel density (MVD) in tumor, CD31 staining; assay type: in vivo, nude mice; settings: P<0.01
Method: The tissue of the in situ tumor in mouse was isolated, and speed-frozen in liquid nitrogen. 8 um serial sections were made in a constant cold box frozen section machine, and dried for 5 min, before being fixed with acetone at −20° C. for 30 min, and then stained with IHC. Incubation with the rat anti-mouse monoclonal antibody CD31 (working concentration 1:100) was carried out at 4′C overnight. The secondary antibody was goat anti-rat IgG/PE (working concentration 1:100). After Hochest33258 contrast stain, photographs were taken under the fluorescence microscope.
The CD31 protein was mainly expressed on the membrane of the vascular endothelial cells, and was expressed in individual vascular endothelial cells and microvessel, intra-tumor microvessel could be visualized with an anti CD31 antibody (FIG. 16).

[2] = relative to irrelevant antibody group, P<0,01

T1 sequence (P10451 17-314): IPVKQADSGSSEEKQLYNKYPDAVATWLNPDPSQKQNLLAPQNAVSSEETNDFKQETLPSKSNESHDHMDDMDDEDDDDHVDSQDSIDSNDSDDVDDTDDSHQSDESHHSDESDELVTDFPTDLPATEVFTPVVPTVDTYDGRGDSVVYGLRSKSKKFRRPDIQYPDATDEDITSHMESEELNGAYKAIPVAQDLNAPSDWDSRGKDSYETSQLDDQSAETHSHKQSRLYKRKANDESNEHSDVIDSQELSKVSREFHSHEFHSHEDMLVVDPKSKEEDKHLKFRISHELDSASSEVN

B1: 1A12: murine anti-hOPN mAb; VH SEQ ID NO: 4, VL SEQ ID NO: 6; from hybridoma 1A12 (antibody, V domains shown)
VH: QVQLEQSGPELVKPGASVKMSCKSSGYTFTTYVMHWVKQKPGQGLEWIGYINPYNDGSKYNEKFKGKATLTSDKSSNTAYMELSSLTSEDSAVYYCASHYGGSPAYWGQGTLVTVSA
VL: DILMTQTPLSLPVSLGDQASISCRSSQSLVHSNGNTYLHWYLQKPGQSPKLLIYKVSNRFSGVPDRFSGSGSGTDFTLKISRVEAEDLGVYFCSQSTHVPWTFGGGTKLEIKR
modifications: amino acid sequence of the heavy chain variable region in 1A12; amino acid sequence of the light chain variable region in 1A12
notes: murine anti-hOPN mAb; from hybridoma 1A12
binding to the human OPN protein (human OPN protein): specifically bound
potency of forming the capillary-like structure in HUVECs (HUVECs): reduce
inhibition of OPN-induced angiogenesis in CAM [1]: significantly inhibit
corneal neovascularization relative to the OPN group (rabbit cornea): significantly reduced
area of neovascularization (rabbit cornea; [2]): significantly shrunk
length of the newly generated blood vessels (rabbit cornea; [2]): significantly reduced
microvessel density (MVD) in tumor versus irrelevant control (MDA-MB-435s cells): significantly less; also recorded: effectively inhibit
